These results are taken from publication PMC5766103 (PLoS ONE, 2018).

One series has as its target T1, IL-17A (Homo sapiens, UniProt Q16552).
T1 construct: His-tag; Flag-tag; made in house; host or cells: Sf9 insect cells (baculovirus)
Nature of the series: Surface plasmon resonance (BIAcore T200) binding of peptides to captured Avi-tagged IL-17A. The settings on record: 8°C, 50 μl/min, 10 mM HEPES pH 7.5, 150 mM NaCl, 0.005% P20, 3% DMSO; global fit, 1:1 binding model; read-out: SPR KD1.

The conditions of series [1]: clinical trials, moderate to severe psoriasis; ref [7]–[9]; cited from earlier work. An excerpt: Augmented expression of IL-17A is linked with various autoimmune disorders. Therefore, blocking activity of IL-17A has been of great therapeutic interest. Two approved antibody based therapeutics targeting IL-17A, Secukinumab and Ixekizumab, are currently being used for treatment of moderate to severe psoriasis. […] Moreover, current advanced clinical trials have shown promising results for treatment of ankylosing spondylitis and psoriatic arthritis ...

Series [2] concerns the molecule itself. Kind of series: crystal structure; IL-17A at 7.1 mg/ml with 2 mM peptide; crystals at 8°C in 20% PEG 3350, 200 mM lithium chloride; 1.6 Å.
The target in series [3] is Avi-tagged IL-17A (IL-17A molecule with a single biotin tag per dimer) (human) (UniProt Q16552). Nature of the series: AlphaScreen or HTRF; AlphaLISA competition: 2 nM IL-17RA-flag and 2 nM Avi-tagged IL-17A-His with peptide dilutions, 2 h at room temperature; streptavidin donor and anti-FLAG acceptor beads; 20 mM HEPES, 150 mM NaCl, 0.05% Tween-20, 0.1% HSA, pH 7, 1% DMSO; relative IC50, four parameter fit.

Series [4] shares this target. Nature of the series: SPR; Avi-tagged IL-17A (6000–9000 RU) captured on a streptavidin chip; peptides flowed at 50 μl/min; 8°C; 10 mM HEPES pH 7.5, 150 mM NaCl, 0.005% P20, 3% DMSO; global fit, 1:1 binding model.

For the molecule `CSCC[C@@H]1NC(=O)[C@H](CC(=O)O)NC(=O)[C@H](Cc2ccc(O)cc2)NC(=O)[C@H](CCC(=O)O)NC(=O)[C@H](CC(C)C)NC(=O)[C@H](C(C)C)NC(=O)[C@H](Cc2c[nH]c3ccccc23)NC(=O)[C@@H](N)CSSC[C@@H](C(=O)N[C@@H](CCCNC(=N)N)C(=O)O)NC(=O)[C@H](Cc2c[nH]cn2)NC(=O)[C@H](CC(C)C)NC(=O)[C@H](C)NC(=O)CNC(=O)[C@H](Cc2ccccc2)NC1=O` [18–902], the Kd on IL-17A amounted to 1300 nM. As for “Ixekizumab: approved antibody based therapeutic targeting IL-17A”, the “patient population with at least 75% reduction of disease severity (PASI75)” value in series [1] is recorded as 80%.

With “Secukinumab: approved antibody based therapeutic targeting IL-17A”, the “patient population with at least 75% reduction of disease severity (PASI75)” value in series [1] is 80%.

B1: IL-17A residues 38–155 with the mutations N68D/C129S (ligand, human, UniProt Q16552 38-155, looked up)
chain: DKNFPRTVMVNLNIHNRNTNTNPKRSSDYYDRSTSPWNLHRNEDPERYPSVIWEAKCRHLGCINADGNVDYHMNSVPIQQEILVLRREPPHSPNSFRLEKILVSVGCTCVTPIVHHVA
notes: construct numbers and the two mutations count on the precursor protein; Crystallography construct
With B1, in series [2], the binding result is “binds”. CLDLQYDMFGALHCV [18–913]: in series [3], the IC50 was determined as 1900 nM. In series [4], this molecule came in with a Kd of 3870 nM, a koff of 0.0528 s⁻¹ and a kon of 13700 M⁻¹ s⁻¹.
